{"source": "patent US10280442B2", "about": "“Mutant sucrose phosphorylases with improved glycosylation activity towards polyphenols” (Universiteit Gent, priority 2015, dated 2019)", "molecules": {"B1": {"name": "BaSP: wild-type thermostable sucrose phosphorylase of Bifidobacterium adolescentis (protein, UniProt A0ZZH6 1-504, looked up)", "Sucrose phosphorylase": "MKNKVQLITYADRLGDGTIKSMTDILRTRFDGVYDGVHILPFFTPFDGADAGFDPIDHTKVDERLGSWDDVAELSKTHNIMVDAIVNHMSWESKQFQDVLAKGEESEYYPMFLTMSSVFPNGATEEDLAGIYRPRPGLPFTHYKFAGKTRLVWVSFTPQQVDIDTDSDKGWEYLMSIFDQMAASHVSYIRLDAVGYGAKEAGTSCFMTPKTFKLISRLREEGVKRGLEILIEVHSYYKKQVEIASKVDRVYDFALPPLLLHALSTGHVEPVAHWTDIRPNNAVTVLDTHDGIGVIDIGSDQLDRSLKGLVPDEDVDNLVNTIHANTHGESQAATGAAASNLDLYQVNSTYYSALGCNDQHYIAARAVQFFLPGVPQVYYVGALAGKNDMELLRKTNNGRDINRHYYSTAEIDENLKRPVVKALNALAKFRNELDAFDGTFSYTTDDDTSISFTWRGETSQATLTFEPKRGLGVDNTTPVAMLEWEDSAGDHRSDDLIANPPVVA"}, "B2": {"name": "Thermoanaerobacterium thermosaccharolyticum sucrose phosphorylase (TtSPP) variant R134T, SEQ ID No 3 (Thermoanaerobacterium thermosaccharolyticum DSM 571; … (protein)", "chain": "MALKNKVQLITYPDSLGGNLKTLNDVLEKYFSDVFGGVHILPPFPSSGDRGFAPITYSEIEPKFGTWYDIKKMAENFDILLDLMVNHVSRRSIYFQDFLKKGRKSEYADMFITLDKLWKDGKPVKGDIEKMFLTRTLPYSTFKIEETGEEEKVWTTFGKTDPSEQIDLDVNSHLVREFLLEVFKTFSNFGVKIVRLDAVGYVIKKIGTSCFFVEPEIYEFLDWAKGQAASYGIELLLEVHSQFEVQYKLAERGFLIYDFILPFTVLYTLINKSNEMLYHYLKNRPINQFTMLDCHDGIPVKPDLDGLIDTKKAKEVVDICVQRGANLSLIYGDKYKSEDGFDVHQINCTYYSALNCDDDAYLAARAIQFFTPGIPQVYYVGLLAGVNDFEAVKKTKEGREINRHNYGLKEIEESVQKNVVQRLLKLIRFRNEYEAFNGEFFIEDCRKDEIRLTWKKDDKRCSLFIDLKTYKTTIDYINENGEEVKYLV"}, "B3": {"name": "R134A: variant R134A of TtSPP sucrose phosphorylase from Thermoanaerobacterium thermosaccharolyticum (protein)", "chain": "B2 chain with T134A", "modifications": "mutant of sucrose phosphorylase of bacterium Thermoanaerobacterium thermosaccharolyticum"}}, "key": {"[1]": {"biological_target": "Thermoanaerobacterium thermosaccharolyticum sucrose phosphorylase (TtSPP) variant R134V, SEQ ID No 2 (Thermoanaerobacterium thermosaccharolyticum, UniProt D9TT09, R134V)", "sequence (D9TT09 whole entry R134V)": "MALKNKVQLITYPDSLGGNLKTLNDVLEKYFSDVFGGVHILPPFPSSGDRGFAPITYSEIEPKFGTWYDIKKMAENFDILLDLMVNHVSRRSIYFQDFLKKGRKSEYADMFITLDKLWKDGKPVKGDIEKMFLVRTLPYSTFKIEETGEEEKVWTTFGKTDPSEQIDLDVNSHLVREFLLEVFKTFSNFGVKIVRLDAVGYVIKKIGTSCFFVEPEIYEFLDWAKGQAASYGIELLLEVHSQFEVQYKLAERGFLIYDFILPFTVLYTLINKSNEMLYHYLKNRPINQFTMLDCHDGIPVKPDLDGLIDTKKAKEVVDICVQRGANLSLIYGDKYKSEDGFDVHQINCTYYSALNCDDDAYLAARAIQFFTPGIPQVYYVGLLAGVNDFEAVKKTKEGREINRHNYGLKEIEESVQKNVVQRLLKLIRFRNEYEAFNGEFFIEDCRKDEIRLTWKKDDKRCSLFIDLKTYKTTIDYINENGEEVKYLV", "assay": "Kinetics of resveratrol glycosylation by variant R134V (co-substrate sucrose)", "format": "biochemical", "details": "1M sucrose as co-substrate, pH 6.5, 55° C., 20% AMMOENG 101", "description": "(§1) Kinetics of enzyme variants on resveratrol were determined in an aqueous system containing 20% ionic liquid AMMOENG 101 (kindly provided by Evonik Industries AG) to dissolve the acceptor in a range of 0 to 200 mM. At this concentration of ionic liquid, the kinetic parameters of the enzyme for its natural substrates are not affected. Reactions were started combining 8.5 μM heat purified enzymes, 1 M sucrose and the respective acceptor-concentration at 55° C. To determine the initial velocity, samples were taken every 15 minutes for one hour, and inactivated by ten-fold dilution in pure ethanol. Product formation was again quantified by TLC and ImageJ analysis, using purified resveratrol 3-alpha-glucoside as TLC-standard and a respective standard curve for calculations. Kinetic parameters were calculated by non-linear regression of the Michaelis-Menten equation with Sigma Plot v13.0. All experiments were performed in triplicate to obtain kinetic parameters as reproducible mean values±standard errors."}, "[2]": {"biological_target": "T1, Thermoanaerobacterium thermosaccharolyticum sucrose phosphorylase (TtSPP) variant R134A, SEQ ID No 1 (Thermoanaerobacterium thermosaccharolyticum, UniProt D9TT09, R134A)", "T1 sequence (D9TT09 1-488 R134A)": "B2 chain with T134A", "assay": "Kinetics of resveratrol glycosylation by variant R134A (co-substrate sucrose)", "format": "biochemical", "details": "1M sucrose as co-substrate, pH 6.5, 55° C., 20% AMMOENG 101", "description": "as §1"}, "[3]": {"system": "Thermoanaerobacterium thermosaccharolyticum sucrose phosphorylase (TtSPP), EC 2.4.1.329, wild type", "details": "sucrose as glycosyl donor; Verhaeghe et al., 2014; cited from earlier work"}, "[4]": {"assay": "Screening assay, transglycosylation activity on resveratrol (semi-quantitative TLC)", "format": "biochemical", "details": "1 gL^−1 enzyme, 10 gL^−1 acceptor, 1 M sucrose, pH 6.5, 37° C., 16 h; FIG. 1", "description": "(§2) Heat-purified proteins (for tests on different acceptors) or crude protein extracts (for library screening) were incubated to a final concentration of 1 gL^−1 with 10 gL^−1 acceptor and 1 M sucrose in 50 mM MOPS-buffer at pH 6.5. Assays were performed at 37° C. in microtiterplates shaking at 200 rpm. The product amounts were evaluated after 16 h by semi-quantitative TLC-analysis: 1 μl of each sample solution was spotted on a Silica-plate (TLC-Silica gel 60 F254, Merck Millipore) and run in a solvent system from ethylacetate:methanol:water (30:5:4, v/v/v). Plates were oxidized with 10% sulphuric acid and spot intensities were determined using ImagaJ."}, "[5]": {"assay": "Screening assay, transglycosylation activity on quercetin (semi-quantitative TLC)", "format": "biochemical", "details": "1 gL^−1 enzyme, 10 gL^−1 acceptor, 1 M sucrose, pH 6.5, 37° C., 16 h; FIG. 2 A", "description": "as §2"}, "[6]": {"substrate": "Oc1ccc(/C=C/c2cc(O)cc(O)c2)cc1", "assay": "Kinetics of resveratrol glycosylation by variant R134T (co-substrate sucrose)", "format": "biochemical, Thermoanaerobacterium thermosaccharolyticum", "details": "other: variant R134T, 1M sucrose as co-substrate, pH 6.5, 55° C., 20% AMMOENG 101", "description": "as §1"}, "[7]": {"assay": "Production of resveratrol 3-alpha-glucoside in aqueous system, followed by HPLC", "format": "biochemical", "details": "1 M sucrose, saturated suspension of 10 g·L^−1 resveratrol, 24 h, 55° C., pH 6.5", "description": "Up-scaling of the transglycosylation reactions on resveratrol was performed up to 400 ml volumes. Reactors were stirred continuously at 55° C. for 24 h, and contained 1 M sucrose, 1 mgL^−1 enzyme and 10 gL^−1 of resveratrol (suspension) in 50 mM MOPS-buffer pH 6.5. Thanks to the quantitative conversion of resveratrol, its glucoside could be simply isolated by repeated ethylacetate extractions to a purity of >90%. The solvent was evaporated and the dried product analyzed by HPLC to determine purity and yield. To verify the identity of the compound by NMR and to produce the standards (TLC, H PLC), further purification was performed by column chromatography on silica gel (EtOAC:MeOH:H2O; 30:5:4; v/v/v) as described earlier (De Winter et al, 2013).\nReactions were followed for 24 h. […] Supernatants were filtered through a 0.2 μm polystyrol filter, diluted in DMSO and analyzed by HPLC using a polar Waters XBridge Amide column (250×4.6 mm, 3.5 μm) and an Alltech 2000ES ELSD-detector (40° C., gas flow 1.5 Lmin^−1), supplied with a gradient mixture of eluent A (acetonitrile, 0.2% triehtylamine) and eluent B (0.2% triethylamine): 90% solvent A (6 min), 10-25% solvent B (stepwise, 3% min^−1), 25% solvent B (20 min) and 90% solvent A (10 min). Concentrations of ingredients and respective yields were calculated according to standards of fructose, glucose and resveratrol 3-alpha-glucoside."}, "[8]": {"assay": "Qualitative survey of promiscuity on diverse polyphenolic acceptors", "format": "biochemical", "details": "FIG. 2 B", "description": "as §2"}}, "note": "Substitutions are numbered along the chain they refer to. Names may count otherwise.", "data": [{"molecule": "Oc1ccc(/C=C/c2cc(O)cc(O)c2)cc1", "note": "[resveratrol, trans-3,4′,5-trihydroxystilbene]", "values": [{"measurement": "kcat", "setting": "[1]", "value": "0.45 ± 0.02", "unit": "s⁻¹"}, {"measurement": "kcat", "setting": "[2]", "value": "2.36 ± 0.25", "unit": "s⁻¹"}]}, {"molecule": "OC[C@H]1O[C@@](CO)(O[C@H]2O[C@H](CO)[C@@H](O)[C@H](O)[C@H]2O)[C@@H](O)[C@@H]1O", "note": "[sucrose]", "values": [{"measurement": "Km", "setting": "[3]", "value": 77, "unit": "mM"}]}, {"molecule": "B1", "values": [{"measurement": "transglycosylation activity on resveratrol", "setting": "[4]", "value": "Neither of these enzymes display significant activity on resveratrol"}, {"measurement": "transglycosylation activity on quercetin", "setting": "[5]", "value": "neither had activity on quercetin"}]}, {"molecule": "B2", "values": [{"measurement": "Km", "setting": "[6]", "value": "56 ± 8", "unit": "mM"}, {"measurement": "kcat", "setting": "[6]", "value": "0.08 ± 0.004", "unit": "s⁻¹"}, {"measurement": "kcat/Km", "setting": "[6]", "value": "1.4 ± 0.2", "unit": "M⁻¹ s⁻¹"}]}, {"molecule": "B3", "values": [{"measurement": "resveratrol 3-alpha-glucoside produced", "setting": "[7]", "value": "17.1 ± 0.6", "unit": "g/L"}, {"measurement": "conversion of resveratrol (acceptor)", "setting": "[7]; FIG. 3", "value": "complete conversion of the acceptor"}, {"measurement": "activity on flavonoids and phenoxyphenols (acceptor promiscuity)", "setting": "[8]", "value": "displayed activity on structures from all five major classes of flavonoids"}, {"measurement": "transglycosylation activity on resveratrol", "setting": "[4]", "value": "retained more than half of its activity on resveratrol"}, {"measurement": "transglycosylation activity on quercetin", "setting": "[5]", "value": "significant amounts of transglycosylation product could be detected"}]}]}
